The nature of the series: yeast display, Sf9 membrane polyspecificity reagent, FACS + sequencing; frameworks hold sequencing errors. A digest of the protocol: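 Synthetic nanobody libraries on Saccharomyces cerevisiae BJ5465 were galactose-induced for 36–48 hours, stained 1 hour at 4 °C with 10% biotinylated, detergent-solubilized Sf9 membrane reagent and enriched on streptavidin microbeads. FACS then separated cells into low and high (top ~1%) gates by anti-HA (expression) and streptavidin (reagent binding) fluorescence. Genes were colony-PCR amplified, MiSeq 2 × 250 sequenced and CDR-length filtered. A clone's polyreactivity label is that of its gate of origin.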
As for “QVQLVESGGGLVQAGGSLRLSCAASGSIFSYNVMGWYRQAPGKERELVAAISYGGGSTYYADSVKGRFTISRDTAKNTVYLQMNSLKPEDTAVYYCAARKWYTYYPYDYWGQGTQVTVSS”, the “polyreactivity (PSR sort gate)” value is reported as “high polyreactivity”. The result for “QVQLVESGGGLVQAGGSLRLSCAASGSIFSYYAMGWYRQAPGKERELVAAIDRSGVSTYYADSVKGRFTISRDNAKNTVYLQMNSLKPEDTAVYYCNTDHRNICFRFKYDYWGQGTQVTVSS” reads “high polyreactivity”; that for “QVQLVESGGGLVQAGGSLRLSCAASGSIFSYYAMGWYRQAPGKERELVAAIRRGGSTNYADSVKGRFTNSRDNAKNTVYLQMNSLKPEDTAVYYCAASLGWRFYYWGQGSQVTVSS”, “high polyreactivity”; that for “QVQLVESGGGLVQAGGSLRLSCAASGSIFSYYAMGWYRQAPGKERELVAAISSRGDGRTYYADSVKGRFTISRDNAKNTVYLQMNSLKPEDTAVYYCAAESSHYRLRDRDYWGQGTQVTVSS”, “high polyreactivity”. The result for “QVQLVESGGGLVQAGGSLRLSCAASGSIFSYYAMGWYRQAPGKERELVAAISYTGGTTYYADSVKGRFTISRDNAKNTVYLQMNSLKPEDTAVYYCAAQWWWNRPVRYEYWGQGTQVTVSS” reads “low polyreactivity”; that for “QVQLVESGGGLVQAGGSLRLSCAASGSIFSYYAMGWYRQAPGKERELVAAITSGGSTYYADSVKGRFTISRDNAKNTVYLQMNSLKPEDTAVYYCAREKWPSQYDYWGQGTQVTVSS”, “low polyreactivity”.

As for “QVQLVESGGGLVQAGGSLRLSCAASGSIFSYYAMGWYRQAPGKERELVAAITSGGSTYYSDSVKGRFTISRDNAKNTVYLQMNSLKPEDTAVYYCAREKWPSQYDYWGQGTQVTVSS”, the “polyreactivity (PSR sort gate)” value is given as “low polyreactivity”. Regarding “QVQLVESGGGLVQAGGSLRLSCAASGSIFSYYAMGWYRQAPGKERELVAAITTSGGSTYYADSVKGRFTISRDNAKNTVYLQMNSLKPEDTAVYYCAVDQYDRTTAFWYWYPYYYWGQGTQVTVSS”, the “polyreactivity (PSR sort gate)” value was “low polyreactivity”. The value for “QVQLVESGGGLVQAGGSLRLSCAASGSIFSYYAMGWYRQAPGKERELVAAITWSGGTTYYADSVKGRFTISRDNAKNTVYLQMNSLKPEDTAVYYCAADTYDYWYGVWLEYDYWGQGTQVTVSS” was “high polyreactivity”; that for “QVQLVESGGGLVQAGGSLRLSCAASGSIFSYYAMGWYRQAPGKERELVADITANDGSTYYADSVKGRFTISRDNAKNTVYLQMNSLKPEDTAVYYCAAEYYYPIWGPYDYWGQGTQVTVSS” was “high polyreactivity”. The value for “QVQLVESGGGLVQAGGSLRLSCAASGSIFSYYAMGWYRQAPGKERELVATISVSGGNTYYADSVKGRFTISRDYAKNTVYLQMNSLKPEDTAVYYCAKYNWYRAWRYGYWGQGTQVTVSS” was “high polyreactivity”. The value for “QVQLVESGGGLVQAGGSLRLSCAASGSIFSYYARGWYRHAPGKERELVADITWDGGSTYYADSVKGRFTISRDNAKNTVYLQMNSLKPEDTAVYYCAAGRIVWSDYYVYTLYDYWGQGTQVTVSS” was “high polyreactivity”; that for “QVQLVESGGGLVQAGGSLRLSCAASGSIFSYYVMGWYRQAPGKERELVAAITSSGGSTYYADSVKGRFTISRDNAKNTVYLQMNSLKTEDTAVYYCAAYQRSQDRSYPGYEYWGQGTQVTVSS” was “high polyreactivity”; that for “QVQLVESGGGLVQAGGSLRLSCAASGSIFSYYVMGWYRQAPGKERELVAVITDRGGRTYYADSVKGRFTISRDNAKNTVYLQMNSLKPEDTAVYYCAADDTPYNSKRFDYWGQGTQVTVSS” was “high polyreactivity”. Take “QVQLVESGGGLVQAGGSLRLSCAASGSIFTAYAMGWYRQAPGKERELVAAIRWNDGRTYYADSVKGRFTISRDNAKNTVYLQINSLKPEDTAVYYCAARYTDVTPGFAYYYWGQGTQVTVSS”: the “polyreactivity (PSR sort gate)” value is “high polyreactivity”. The value for “QVQLVESGGGLVQAGGSLRLSCAASGSIFTAYDKGWYRQAPGKVRDLVAAINVSAGTTYYADSVKGRFTISRDNAKNTVYLQMNSLKPEDTAVYYCATDRSPTPYTRENIYDYWGQGTQVTVSS” was “low polyreactivity”. The result for “QVQLVESGGGLVQAGGSLRLSCAASGSIFTAYTMGWYRQAPGKERELVAAITERGGSTYYADSVKGRFTISRDNAKKTVYLQMNSMKPEDTAVYYCAASTLKDIYLWFRVDYWGQGTQVTVSS” reads “low polyreactivity”; that for “QVQLVESGGGLVQAGGSLRLSCAASGSIFTDNAMGWYRQAPGKERELVAAITSNGGSTYYADSVKGRFTISRDNAKNTVYLQMNSLKPEDTAVYYCAADSLYREDDYWGHGTQVTVSS”, “low polyreactivity”.

Take “QVQLVESGGGLVQAGGSLRLSCAASGSIFTDYALAWYRQAPGKERELVATITWSDATTYYTDSVKGRFTISRDNAKNTVYLQMNSLKPEDTAVYYCARRSRYSKGYDYWGQGTQVTVSS”: the “polyreactivity (PSR sort gate)” value is “low polyreactivity”.

Consider “QVQLVESGGGLVQAGGSLRLSCAASGSIFTENEMGWYRQAPGKERELVATITITGSTNYADSVKGRFTISRDNAKNTVYLQMNSLKPEDTAVYYCAAEQPYKSPWTFGGYDYWGQGTQVTVSS”, for which the “polyreactivity (PSR sort gate)” value was “low polyreactivity”. As for “QVQLVESGGGLVQAGGSLRLSCAASGSIFTFNSMGWYRQSPGKERELVAAIRWSSGRTYYADSVKGRFTISRDNAKNTVYLQMNSLKPEETAVYYCAAKDFGSFYDSGYDYWGQGTQVTVSS”, the “polyreactivity (PSR sort gate)” value is reported as “high polyreactivity”. Turning to “QVQLVESGGGLVQAGGSLRLSCAASGSIFTFYAMGWYRQAPGKERELVAAISSSGTSTYYADSVQGRFTISRDNAKNTVYLQMNSLKPEDTAVYYCNVPMPPAKAEYGYWGQGTQVTVSS”, the “polyreactivity (PSR sort gate)” value was “high polyreactivity”.

“QVQLVESGGGLVQAGGSLRLSCAASGSIFTFYDMGWYRQAPGKERELVAAISSGGSTTYADSVKGRFTISRDNAKNTVYLQMNSLKPEDTAVYYCAADSQPYLYPVEYDYWGQGTQVTVSS”: the “polyreactivity (PSR sort gate)” value is listed as “low polyreactivity”.

With “QVQLVESGGGLVQAGGSLRLSCAASGSIFTGNAMGWYRPAPGTERELVAAITRSGDSTYYADSVKGRFTISRDNAKNTVYLQMNSLKPEDTAVDYCNARWRYLHSYGYWGQGTQVTVSS”, the “polyreactivity (PSR sort gate)” value is reported as “low polyreactivity”.

“QVQLVESGGGLVQAGGSLRLSCAASGSIFTGNAMGWYRQAPGKERELVAGISKSGGSTYYADSVKGRFTISRDNAKNTVYLQMNSLKPEDTAVYYCAAREGWWPYYYWGQGTQVTVSS”: the “polyreactivity (PSR sort gate)” value is given as “high polyreactivity”.

Regarding “QVQLVESGGGLVQAGGSLRLSCAASGSIFTGYAMGWYRPAPGKERELVAAITSGGGTYYADSVKGRFTISRDNAKNTVSLQMNSLKPEDTAVYYCATTPGWYKVSRRYGYWGQGTQVTVSS”, the “polyreactivity (PSR sort gate)” value was “high polyreactivity”. The value for “QVQLVESGGGLVQAGGSLRLSCAASGSIFTGYAMGWYRQAPGKERELVAAITYGSGRTYYADSVKGRFTISRDNAKNTVYLQMNSLKPEDTAVYYCAAKWSPYYYYIGYDYWGQGTQVTVSS” was “low polyreactivity”; that for “QVQLVESGGGLVQAGGSLRLSCAASGSIFTHNAMGWYRPAPGKERELVAAISSGGSTYYADSVKGRFTISRDNAKNTVYLQMNSLKPEDTAVYYCAVRQGWYHFRYDYWGQGTQVTVSS” was “high polyreactivity”; that for “QVQLVESGGGLVQAGGSLRLSCAASGSIFTHYAMGWYRQAPGKERELVAAISRRGGSTYYADSVKGRFTISRDNAKNTVYLQMNSLKPEDTAVYYCANSPDTAKEYDYWGQGTQVTVSS” was “high polyreactivity”. The result for “QVQLVESGGGLVQAGGSLRLSCAASGSIFTLYAMGWYRQAPGKERELVADITFSGGTTYYADSVKGRFTISRDNAKNTVYLQMNSLKPEDTAVYYCATTYYQLYVQGYEYWGQGTQVTVSS” reads “high polyreactivity”. The value for “QVQLVESGGGLVQAGGSLRLSCAASGSIFTNNAMGWYRQAPGKERELVAGISIRGSSTYADSVKGRFTISRDNAKNTVYLQMNSLKPEDTAVYDCAADAYLELDPEVDYWGQGTQVTVSS” was “low polyreactivity”. In the case of “QVQLVESGGGLVQAGGSLRLSCAASGSIFTPNAMGWYRQAPGKERELVAAISSSSDRTYYADSVKGRFTISRDNAKNTVYLQLNSLKPEDTAVYYCAAYAQKRYYWGQGTQVTVSS”, the “polyreactivity (PSR sort gate)” value is reported as “high polyreactivity”. The result for “QVQLVESGGGLVQAGGSLRLSCAASGSIFTPNAMGWYRQAPGKERELVAAISSSSDRTYYADSVKGRFTISRDNAKNTVYLQMNSLKPEETAVYYCAAYAQKRYYWGQGTQVTVSS” reads “high polyreactivity”; that for “QVQLVESGGGLVQAGGSLRLSCAASGSIFTPYAMGWYRQAPGKERELVAAISRSGGSTFYADSVKGRFTISRDNAKNSFYLQMNSLKPEDTAVYYFAVVASRSHTETPEYDYWGQGTQVTVSS”, “low polyreactivity”.

Regarding “QVQLVESGGGLVQAGGSLRLSCAASGSIFTPYAMGWYRQAPGKERELVAAITYSGGSTYYADSVKGRFTISRDNAKNTVYLQMNSLKPEDTAVYYCAAYFNIYGLEYDYWGQGTQVTVSS”, the “polyreactivity (PSR sort gate)” value is recorded as “high polyreactivity”. The result for “QVQLVESGGGLVQAGGSLRLSCAASGSIFTPYAMGWYRQAPGKERELVADIDASGGGTYADSVKGRFTISRDNAKNTVYLQMNSLKPEDTAVYYCNTDPYSSAWYNYDYWGQGTQVTVSS” reads “low polyreactivity”; that for “QVQLVESGGGLVQAGGSLRLSCAASGSIFTPYVKGWYRQAPGKERELVAAISKRGTRTYYSDSVKGRFTISRDNAKNTVYLQMNSLKPEDTAVYYCNAAVDYGSEHDYWGQGTQVTVSS”, “high polyreactivity”; that for “QVQLVESGGGLVQAGGSLRLSCAASGSIFTRNAMGWYRQAPGKERELVADISRRGVSTYYADSVKGRFTISRDNAKNTVYLQMNSLKPEDTAVYYCNKLSSYVVARRTTEYDYWGQGTQVTVSS”, “high polyreactivity”.

Regarding “QVQLVESGGGLVQAGGSLRLSCAASGSIFTRNAMGWYRQAPGKERELVATIRKNGASTTYADSVKGRFTISRDNAKNTVYLQMNSLKPEDTAVSYCARDHHTKYNYWGQGTQVTVSS”, the “polyreactivity (PSR sort gate)” value is on record as “low polyreactivity”. The result for “QVQLVESGGGLVQAGGSLRLSCAASGSIFTRNTMGWYRQAPGKERELVAAINRSGGRTYYADSVKGRFTISRDNAKNSVYLTMNSLKPEDTAVYYCAAYTQGSRYDYWGQGTQVTVSS” reads “high polyreactivity”. The result for “QVQLVESGGGLVQAGGSLRLSCAASGSIFTRYAMAGYRQAPGKERELVAAISWIGTRTYYADSVKGRFTISRDNAKNTVYLPMNSLKPEETAVYYCNAVSKVERYSYPHGRPFEYWGQGTQVTVSS” reads “high polyreactivity”.
